Results: the supplement of paper PMC9170038

Tested on: MS2 coat protein
Test: apparent KD of MS2 coat protein; higher = weaker reporter binding
Details: Eterna round: R107
Outline: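 Designed RNA switches were transcribed on-chip from Illumina sequencing clusters. SNAP-549-labelled MS2 coat protein was titrated onto them in twofold steps from 0.7 or 1.5 nM to 3 µM in 100 mM Tris-HCl pH 7.5, 80 mM KCl, 4 mM MgCl2, either without or with constant ligand. Apparent KD reflects the per-design median of normalised cluster binding-curve fits.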

[1] = input ligand: theophylline 20 uM
[2] = input ligand: theophylline 2 mM
[3] = input ligand: tryptophan 2.4 mM

Sequence	apparent KD of MS2 coat protein (input ligand: arginine 13.2 mM) [nM]	apparent KD of MS2 coat protein (input ligand: none) [nM]	apparent KD of MS2 coat protein [1] [nM]	apparent KD of MS2 coat protein [2] [nM]	apparent KD of MS2 coat protein [3] [nM]
GGGCUCGGAGUGCGGCGUGUUCCGCUCCGUCGAGGACCGGUACGGCCGCCACUCGACAUGAGGAUCACCCAUGUCCGAGCGCGCG [#1 Exclusion - Tryptophan A Attempt #6 (HarryS)]	19.2	21.2	41.7	51.4	9.64
GGGUCGGGCGCGGCCGCCACUGCGGUGAUGUGACAUGAGGAUCACCCAUGUUGUCAUGUGGCACAUAGGACCGGGCGCCCGGCCC [#1 Exclusion - Tryptophan B Attempt #8 (HarryS)]	34.7	29.1	46.8	34.7	29.1
GGUACAUGAGGAUCACCCAUGUAUUAGUGCCGAGGACCGGUACGGCCGCCACUCGCUUCACAUGAGGAUCACCCAUGUGUCACAG [SSTA DOUBLE!!! :-D #13]	22.4		38.4	39.7	
GGUAGCAGGACUGAUACCAGUCCAGCGAAUCAUACGACGCAACAUGAGGAUCACCCAUGUGACCCUUGGCAGCAGACUGCUACCG [Same State Theophylline B GF 28]	29.4		24.8		26.7
GGUGGCGGGACUGAUACCAGCCACCACCGAUAGACCACAUGAGGAUCACCCAUGUUGGGUGGCCCUUGGCAGCAGUCUUGCGGCG [#1 Same State - Theophylline B Attempt #15 (HarryS)]	85.5	527	491	81.5	1290
GGUUCAUCGUCGGCCGCCACUCACAUGAGGUGGAGCUGUAAACAUGAGGAUCACCCAUGUUGUUAGAGGACCGGGACGUGACGGC [theeternabot_exclusion_MS2_Trp_B_6]	25.5		43.4	42.1	
GUAGCGACGACGGCCGCCACUCACAGGUGAGGGUAGACCAACCUUCACAUGAGGAUCACCCAUGUGAGGACCGGGUUGUCGCUAC [#12 Exclusion Tryptophan B]	57.5	79	109	81.4	168
GUAGGUCACCUCAUGAGACCUACCCUGGAAGGAGCGAGCGAAAGCUCAGGUAGGUCGCCAGAAACAUGAGGAUCACCCAUGUAAU [(A)''-(M)'-(A)'-(Arg1)-(Arg2)-(M1)-(M2)_Design3]	29.4	51.1	150	190	44.6
GUAGGUCAGUGAUCCCGACCUACACUGGAAGGAGCGAGCGAAAGCUCAGGUAGGUCGCCAGAAACAUGAGGAUCACCCAUGUAAU [(A)''-(M)'-(A)'-(Arg1)-(Arg2)-(M1)-(M2)_Design1]	76.1	172	153	219	118
GUAUAAAGAAAACUUUAUACAGUGGGUGAACGAGGACCGGUACGGCCGCCACUCGGACAUGAGGAUCACCCAUGUCCAUGUGAAA [AstrosExyTryA#9]	14.4	14.3	13.9	17	37.2
GUAUAUAUGCGAAGGAGCGGGAAAUAUAUAUAUAUAAUCCUAACAUGAGGAUCACCCAUGUCCCAGGUAGGUCGCGCAUAUAUAU [12.B]	68.7	69.6	86.9	83.6	76.1
GUCAGUGACUGAAGGAGCGACAUGAGGAUCACCCAUGUCUCCCGUUAUGGGAGUUCCUUAGGUCAGGUAGGUCGCAGUCACUGAC [#1 Exclusion - Arginine B Attempt #29 (Inspired by Omei)]	174	123	163	188	95.7
GUCGCUGAGGGAAGGAGCGUGAAGACAUGAGGAUCACCCAUGUAGAGGCGCCGAAGGCGUUCGCAGGUAGGUCGCCCUCAGUGAC [#1 Same State - Arginine B Attempt #22 (HarryS)]	42.4	19.3	23.2	16.7	16.8
GUCGGUACGUCGGCAAAGCCGAUGUGCCAGCGAGGACCGGUACGGCCGCCACUCGUACAUGAGGAUCACCCAUGUCCGGUCCGGC [Omei Trp SS A C v2]	32.5		84.4	92.4	
GUGGAGACAUGAGAUACCAGUCUCUUUAACAUGAGGAUCACCCAUGUAAUGCUCCUCGGAGACCCUUGGCAGCUCAGUAUGAUGA [#09 Exclusion-TheophyllineB]	32.2		71.7		34.4
GUUAUGAUAAGAAGGAGCGUCGAAAAUGGGUAAACAUGAGGAUCACCCAUGUAAAGGGAACGACAGGUAGGUCGCUUAUUAUAAC [AstromonsSSArgB#20]	86.8	190	270	161	154
GUUGAGACCUCGGCCGCCACUCGCCAUGAGGAUCUCCCAUGUAACAUGAGGAUCACCCAUGUACUGAGGACCGGGAGGUCCUAGU [Same State Tryptophan B GF 15]	17.2	17.4	34	33.5	65.6
GUUUAGAGCUCGGCCGCCACUCAAACAUGAGGAUCACCCAUGUAAAACAUGAGGAUCACCCAUGUGAGGACCGGGAGAAAUAAGA [Exclusion Tryptophan B GF7]	242	337	370	435	420

Sequence	apparent KD of MS2 coat protein (input ligand: arginine 13.2 mM) [nM]	apparent KD of MS2 coat protein (input ligand: none) [nM]	apparent KD of MS2 coat protein [1] [nM]	apparent KD of MS2 coat protein [2] [nM]	apparent KD of MS2 coat protein [3] [nM]
UAAAACAUGAGGAUCACCCAUGUAAAAGAUACCAGAGUGAUGAUCCUCCCUUGGCAGCUUAACGCUGAUUGAUUACAAUCAGCGA [Mat - Same State Theophlline A - Mod of Eli - D21]	75.4		124		53.3
UAACAUGAGGAUCACCCAUGUAAACUAAGUCGAGGACCGGUACGGCCGCCACUCGAAAUUGAAGAAUUGGCGGAAAAUGUAUGUU [JR_ExcTryptoA_Sub018]	12		17.7	13.3	
UAAUAAGUACCGGUCCUCAGAUCCUCAUGACGAGGACCGGUACGGCCGCCACUCGAAACAUGAGGAUCACCCAUGUAAUAAUAAC [Brourdmod03]	23		77	45.2	
UAGACGGCCGGAAGGAGCGGUACAUGAGGAUCACCCAUGUACUUCUGGGCAUCCGUAGUGUGCCAGGUAGGUCGCCGGUUGCGGG [XArg-B20]	45.9	14.4	32.4	33.1	19.9
UAGCGAUAAUCUGAUACCAGACGUGUACUCUCCUCAGACAUGAGCAUCAGCCAUGUAUGCGUCCCUUGGCAGCAGAGAUAGGAGA [Theo B Ex t5b]	16.9	16.1	24.5	36.7	16.9
UAGUUAGCGGCGGCCGCCACUCGAGAUAUAACAUGAUAUCAUAACAUGAGGAUCACCCAUGUCACGAGGACCGGGCCGAUCUUCA [Same State Typptophan B GF6]	27.9	48.5	102	163	49.4
UAUAUAUAAACAUGAGGAUCACCCAUGUAACGAGGACCGGUACGGCCGCCACUCGGCCGGCAAGGGAGAGGACGGGAAACCGUCG [ETA NP+V+V2 #27]	12.5	13.4	19.3	15.9	17.1
UAUAUAUAUAUGGAUACCAGCAGAGAAAACGUUUAUCCUAACAUGAGGAUCACCCAUGUAUGCCCUUGGCAGCUGUAUAUAUAUA [8.G]	21.4		29.5		24.7
UAUCCACAUGAGGAUCACCCAUGUAAGGAAGGAGCGGUGAAUGCACCAGGUAGGUCGCCUUGCUGAGGACAGCCGGUGGAUUCGU [Exclusion - Arginine A (Freestyle 24)]	14.7	17.7	17.9	21.9	16.2
UAUCGUCAGACGGCCGCCACUAGAACAUGAGGAUCACCCAUGUAAGUGGCCGGUCUCCUCAUGACUAGGACCGGGUCUGACGAAU [(Trp1)-(Ms2)-(T)'-(M)'-(Trp2)_Design18]	9.69		14.1	10.9	
UCACAUGAGGAUCACCCAUGUACAGGCGAUACCAGCCGUACAUUGGGCCCUUGGCAGCGCACCGAGGACUUUUUAAGCAUCUCGG [Diatbeen]	26.2	19.8	401	282	23.8
UCACAUGAGGAUCACCCAUGUCCAGGUGAAGGAGCGAUUAGGGAGUCAGGUAGGUCGCACCACAUGAGGAUCACCCAUGUGCCUG [EAA NP+V+V2 #8 DOUBLE]	18.4	22.8	27.5	25.4	24.1
UCAGCACAUGAGGAUCACCCAUGUCGUGAUACCAGCCUGUGCGAAGGCCCUUGGCAGCACAGUCCCGAUUUGCUUAUAUGCACUU [theeternabot_sameState_MS2_Theo_A_48]	32.4		61		34.4
UCGCCCAGAAAGGAUUCCUGGGAUAUGGAAGGAGCGCUGAUGCCAGCAGGUAGGUCGCCAACGGACAUGAGGAUCACCCAUGUAC [Same State - Arginine A (Freestyle 7)]	15.4	17.3	25.7	21.7	18
UCGCCCAGGAUGGAAUCCUGGGAUAUGGAAGGAGCGCUGAUGCCAGCAGGUAGGUCGCCAACGGACAUGAGGAUCACCCAUGUAC [Same State - Arginine A (Freestyle 9)]	17.7	19.1	28.8	21.2	18.6
UCGCUCUGGGUGAGAUCCGGAGAUAUGGAAGGAGCGCUGAUGCCAGCAGGUAGGUCGCCAACGGACAUGAGGAUCACCCAUGUAC [Same State - Arginine A (Freestyle 10)]	25	52.4	64.2	34.5	39.8
UCGUGUCUAUUGGUUUAGCUUUAAUCGUUACGAGGACCGGUACGGCCGCCACUCGAUUUAACAUGAGGAUCACCCAUGUACUCUC [JR_ExcTryptoA_Sub012]	17.5		26.6	21.4	
